Data set [1] has as its system Nc1ncnc2c1ncn2[C@@H]1O[C@H](COP(=O)(O)OP(=O)(O)OP(=O)(O)O)[C@@H](O)[C@H]1O. As to the kind of experiment: purified protein, by the assay type. The settings on record: other: substrate Km of the recombinant UMP/CMP kinase from U. maydis, Lineweaver-Burk plot (FIG. 4A/4B).
Method: The ADP produced in the reaction is measured by the coupled reaction with pyruvate kinase and lactate dehydrogenase. Here the pyruvate produced in the reaction of the pyruvate kinase is converted to lactate by the lactate dehydrogenase with the use of NADH.
The activity and/or decrease or increase in activity of the inventive polypeptide can therefore occur by coupling this reaction with the enzymatic conversion of the ADP by the pyruvate kinase and the subsequent enzymatic conversion by the lactate dehydrogenase of the pyruvate produced. This makes use of the fact that the pyruvate produced in the reaction of the pyruvate kinase is converted to lactate by the lactate dehydrogenase (LDH) with the consumption of NADH.
The co-substrate NADH consumed in the reaction of the LDH has an extinction maximum at 340 nm.
Data set [2] deals with O=c1ccn([C@@H]2O[C@H](COP(=O)(O)O)[C@@H](O)[C@H]2O)c(=O)[nH]1. As to the kind of experiment: purified protein, by the assay type. The settings on record: other: substrate Km of the recombinant UMP/CMP kinase from U. maydis, Lineweaver-Burk plot (FIG. 4A/4B).

By Km is commonly meant the substrate concentration at which the rate is half of its maximum. For the substance “UMP/CMP kinase from Ustilago maydis (Mycosarcoma maydis)”, the Michaelis-Menten constant (Km) amounted to 60 µM in data set [1] and 120 µM in data set [2].

The values are drawn from patent publication US20050208611A1, “Process for identifying compounds with fungicide activity based on UMP/CMP kinases from fungi” (priority 2003, published 2005).
